One may read the koff as the first-order rate constant of dissociation. In general, kon refers to a measure of how fast the partners come together. Low readings indicate slow association, high ones fast association. The term Kd denotes the equilibrium constant for the complex coming apart. Lower therefore signals tighter binding.

Conditions in all cases: both partners purified
The target in experiment [1] is T1, SARS-CoV-2 nucleocapsid (N) protein, full length (N-FL, 1-419) (Severe acute respiratory syndrome …, UniProt P0DTC9).
T1 construct: also called SARS-CoV-2 N protein
The experiment can be described thus: SPR; Biacore X100; […]; room temperature; 1:1 binding model, […]. For orientation: SPR reads the build-up and loss of mass on a sensor chip optically.

Experiment [2] concerns the target T2, SARS-CoV nucleocapsid (N) protein, full length (N-FL) (Severe acute respiratory syndrome …, UniProt P59595).
T2 construct: also called SARS-CoV N protein; SARS-CoV N-FL
The description is as above.

In experiment [3] the target is T3, MERS-CoV nucleocapsid (N) protein, full length (N-FL) (MERS-CoV, strain , UniProt K9N4V7).
T3 construct: also called MERS-CoV N protein; MERS-CoV N-FL
Described as above.

The target in experiment [4] is T4, MERS-CoV N protein (N-FL) (MERS-CoV, strain , UniProt K9N4V7).
T4 construct: also called MERS-CoV N-FL; Middle East respiratory syndrome coronavirus N protein
Kind of experiment: SPR; Biacore X100; […]; room temperature; 1:1 binding model.

The target in experiment [5] is T5, SARS-CoV N protein (N-FL) (Severe acute respiratory syndrome …, UniProt P59595).
T5 construct: also called SARS-CoV N-FL
The experiment is described as above.

Experiment [6] deals with T6, SARS-CoV-2 full-length nucleocapsid (N) protein (N-FL: 1-419) (Severe acute respiratory syndrome …, UniProt P0DTC9).
T6 construct: also called SARS-CoV-2 N protein
Described as above.

B1: mAb nCoV396 (recombinant human IgG1) (antibody, V domains shown)
VH: QVQLVESGGGVVQPGRSLRLSCAASGFTFSSYIMHWVRQAPGKGLEWVAVISYDGSNEAYADSVKGRFTISRDNSKNTLYLQMSSLRAEDTGVYYCARETGDYSSSWYDSWGRGTLVTVSS
VL: QLVLTQSPSASASLGASVKLTCTLSSGHSNYAIAWHQQQPEKGPRYLMKVNSDGSHTKGDGIPDRFSGSSSGAERYLTISSLQSEDEADYYCQTWGTGIQVFGGGTKLTVL
notes: also called mAb-396; IgH ID H16030
In experiment [1], B1 gave a koff of 2.89e-06 s⁻¹ and a kon of 2830 M⁻¹ s⁻¹. In experiment [2], this molecule came in with a Kd of 7.44 nM, a koff of 0.000295 s⁻¹ and a kon of 39700 M⁻¹ s⁻¹. In experiment [3], the Kd came out at 7.43 nM, the off-rate (koff) came out at 0.0004 s⁻¹ and the kon turned out to be 53800 M⁻¹ s⁻¹.

B2: human monoclonal antibody nCoV396, recombinant IgG1 (antibody, V domains shown)
VH: B1 VH
VL: B1 VL
notes: also called mAb nCoV396
As to B2, the Kd was found to be 7.4 nM in experiment [4], 7.4 nM in experiment [5] and 1.02 nM in experiment [6].

Values taken from publication PMC8113585 (Nature Communications, 2020).
